Laboratory results as given in patent US20230240966.

B1: Glutamyl endopeptidase II sprE from Streptomyces griseus (protein)
chain: VLGGGAIYGGGSRCSAAFNVTKGGARYFVTAGHCTNISANWSASSGGSVVGVREGTSFPTNDYGIVRYTDGSSPAGTVDLYNGSTQDISSAANAVVGQAIKKSGSTTKVTSGTVTAVNVTVNYGDGPVYNMVRTTACSAGGDSGGAHFAGSVALGIHSGSSGCSGTAGSAIHQPVTEALSAYGVTVY
B2: Subtilisin Carlsberg from Bacillus licheniformis (protein)
chain: AQTVPYGIPLIKADKVQAQGFKGANVKVAVLDTGIQASHPDLNVVGGASFVAGEAYNTDGNGHGTHVAGTVAALDNTTGVLGVAPSVSLYAVKVLNSSGSGSYSGIVSGIEWATTNGMDVINMSLGGASGSTAMKQAVDNAYARGVVVVAAAGNSGSSGNTNTIGYPAKYDSVIAVGAVDSNSNRASFSSVGAELEVMAPGAGVYSTYPTNTYATLNGTSMASPHVAGAAALILSKHPNLSASQVRNRLSSTATYLGSSFYYGKGLINVEAAAQ
B3: Glutamyl endopeptidase blaSE from Bacillus licheniformis (protein)
chain: SVIGSDDRTRVTNTTAYPYRAIVHISSSIGSCTGWMIGPKTVATAGHCIYDTSSGSFAGTATVSPGRNGTSYPYGSVKSTRYFIPSGWRSGNTNYDYGAIELSEPIGNTVGYFGYSYTTSSLVGTTVTISGYPGDKTAGTQWQHSGPIAISETYKLQYAMDTYGGQSGSPVFEQSSSRTNCSGPCSLAVHTNGVYGGSSYNRGTRITKEVFDNLTNWKNSAQ
B4: Subtilisin 309 variant from Bacillus clausii (protein)
chain: AQSVPWGIERVQAPAAHNRGLTGSGVKVAVLDTGISTHPDLRIRGGASFVPGEPSTQDGNGHGTHVAGTIAALDNSIGVLGVAPSEALYAVKVLGASGSGSVSSIAQGLEWAGNNGMHVANLSLGSPSPSATLEQAVNSATSRGVLVVAASGNSGAGSISYPARYANAMAVGATDQNNNRASFSQYGAGLDIVAPGVNILSTWPGSTYASLNGTSMATPHVAGAAALVKQKNPSWSNVQIRNHLKNTATSLGDTWEYGSGLVNAEAATR
B5: Serine protease bppB from Bacillus pumilus JA16 (protein)
chain: VVIGDDGRTKVTNTRVAPYNSIAYITFGGSSCTGTLIAPNKILTNGHCVYNTATRSYSAKGSVYPGMNDSTAVNGSANMTEFYVPSGYINTGASQYDFAVIKTDTNIGNTVGYRSIRQVTNLTGTTIKISGYPGDKMRSTGKVSQWEMSGPVTREDTNLAYYTIDTFSGNSGSAMLDQNQQIVGVHNAGYSNGTINGGPKATAAFVEFINYAKAQ
B6: Thermostable alkaline protease BH0855 from Bacillus halodurans (protein)
chain: QTVPWGISFINTQQAHNRGIFGNGARVAVLDTGIASHPDLRIAGGASFISSEPSYHDNNGHGTHVAGTIAALNNSIGVLGVAPSADLYAVKVLDRNGSGSLASVAQGIEWAINNNMHIINMSLGSTSGSSTLELAVNRANNAGILLVGAAGNTGRQGVNYPARYSGVMAVAAVDQNGQRASFSTYGPEIEISAPGVNVNSTYTGNRYVSLSGTSMATPHVAGVAALVKSRYPSYTNNQIRQRINQTATYLGSPSLYGNGLVHAGRATQ
B7: Lysyl endopeptidase from Achromobacter lyticus (protein)
chain: GVSGSCNIDVVCPEGDGRRDIIRAVGAYSKSGTLACTGSLVNNTANDRKMYFLTAHHCGMGTASTAASIVVYWNYQNSTCRAPNTPASGANGDGSMSQTQSGSTVKATYATSDFTLLELNNAANPAFNLFWAGWDRRDQNYPGAIAIHHPNVAEKRISNSTSPTSFVAWGGGAGTTHLNVQWQPSGGVTEPGSSGSPIYSPEKRVLGQLHGGPSSCSATGTNRSDQYGRVFTSWTGGGAAASRLSDWLDPASTGAQFIDGLDSGGGTP
B8: Trypsin from Fusarium oxysporum (protein)
chain: IVGGTSASAGDFPFIVSISRNGGPWCGGSLLNANTVLTAAHCVSGYAQSGFQIRAGSLSRTSGGITSSLSSVRVHPSYSGNNNDLAILKLSTSIPSGGNIGYARLAASGSDPVAGSSATVAGWGATSEGGSSTPVNLLKVTVPIVSRATCRAQYGTSAITNQMFCAGVSSGGKDSCQGDSGGPIVDSSNTLIGAVSWGNGCARPNYSGVYASVGALRSFIDTYA
B9: Serine protease from Nocardiopsis sp NRRL 18262 (protein)
chain: ADIIGGLAYTMGGRCSVGFAATNAAGQPGFVTAGHCGRVGTQVTIGNGRGVFEQSVFPGNDAAFVRGTSNFTLTNLVSRYNTGGYATVAGHNQAPIGSSVCRSGSTTGWHCGTIQARGQSVSYPEGTVTNMTRTTVCAEPGDSGGSYISGTQAQGVTSGGSGNCRTGGTTFYQEVTPMVNSWGVRLRT

Tests used:
Suc-AAPE-pNA = target: T1, Suc-AAPE-pNA; conditions: for relative activity (initial increase in OD405): scale: relative to the substrate with the highest activity
T1 chain: AAPE

Suc-AAPI-pNA = target: T2, Suc-AAPI-pNA; conditions: scale: relative to the substrate with the highest activity
T2 chain: AAPI

Suc-AAPV-pNA = target: T3, Suc-AAPV-pNA; conditions: scale: relative to the substrate with the highest activity
T3 chain: AAPV

Suc-AAPF-pNA = target: T4, Suc-AAPF-pNA; conditions: scale: relative to the substrate with the highest activity
T4 chain: AAPF

Suc-AAPD-pNA = target: T5, Suc-AAPD-pNA; conditions: scale: relative to the substrate with the highest activity
T5 chain: AAPD

Suc-AAPK-pNA = target: T6, Suc-AAPK-pNA; conditions: scale: relative to the substrate with the highest activity
T6 chain: AAPK

Suc-AAPL-pNA = target: T7, Suc-AAPL-pNA; conditions: scale: relative to the substrate with the highest activity
T7 chain: AAPL

Suc-AAPM-pNA = target: T8, Suc-AAPM-pNA; conditions: scale: relative to the substrate with the highest activity
T8 chain: AAPM

Suc-AAPR-pNA = target: T9, Suc-AAPR-pNA; conditions: scale: relative to the substrate with the highest activity
T9 chain: AAPR

Suc-AAPA-pNA = target: T10, Suc-AAPA-pNA; conditions: scale: relative to the substrate with the highest activity
T10 chain: AAPA

[1] = target: type II (60-70 kDa) keratins of the ORS

Protein	Glutamyl endopeptidase ratio (GR) (Suc-AAPE-pNA)	relative activity (initial increase in OD405) (Suc-AAPE-pNA)	relative activity (initial increase in OD405) (Suc-AAPI-pNA)	relative activity (initial increase in OD405) (Suc-AAPV-pNA)	relative activity (initial increase in OD405) (Suc-AAPF-pNA)	relative activity (initial increase in OD405) (Suc-AAPD-pNA)	relative activity (initial increase in OD405) (Suc-AAPK-pNA)	relative activity (initial increase in OD405) (Suc-AAPL-pNA)	relative activity (initial increase in OD405) (Suc-AAPM-pNA)	relative activity (initial increase in OD405) (Suc-AAPR-pNA)	relative activity (initial increase in OD405) (Suc-AAPA-pNA)	hydrolysis of ORS tissue protein, SDS-PAGE with Coomassie Blue [1]
B1	6	1	0	0	0	0.158	0	0	0.0001	0.0001	0	–
B2	0.003	0.0033	0.0005	0.0007	1	0.0008	0.0155	0.807	0.282	0.019	0.0222	–
B3	309	1	0	0.0001	0.0032	0.002	0.0001	0.0027	0.0008	0.0001	0.0001	5 ppm HZ-2 fully degraded type I and type II during the experiment
B4	0.003	0.0025	0.0003	0.0001	1	0.0001	0.0011	0.17	0.861	0.0002	0.0566	–
B5	234	1	0	0	0	0.0043	0.0003	0.0005	0	0	0	–
B6	0.008	0.0083	0.0005	0.0008	0.59	0.0053	0.0038	1	0.85	0.0069	0.088	–
B7	< 0.001	0	0.0017	0.0007	0.0041	0.0006	1	0.0019	0	0.0005	0.0005	–
B8	< 0.001	0.0001	0	0	0.0001	0	0.84	0	0	1	0	–
B9	< 0.001	0.0004	0.0004	0.0121	1	0.0028	0.0778	0.185	0.0003	0.172	0.0001	–
